# Tests used:
# cartilage [1] = details: for Cartilage (C): percentage of signal in the cartilage compared to the blood signal in the heart ventricle / Muscle (M): signal compared to the level in the blood: 3 hours after administration, ligated kidneys, 14C-labelled peptide, tail vein
# Protocol: This example describes a dosing scheme for administering knottin peptides to mice in conjunction with kidney ligation. Different dosages of the peptides were administered to Female Harlan athymic nude mice, weighing 20 g-25 g, via tail vein injection (n=2 mice per knottin). The experiment was done in duplicates. The kidneys were ligated to prevent renal filtration of the peptides. Each peptide was radiolabeled by methylating lysines and the N-terminus, so the actual binding agent may contain methyl or dimethyl lysine(s) and a methylated or dimethylated amino terminus.
# A target dosage of 50-100 nmol of each peptide carrying 10-25 uCi of ^14C was administered to Female Harlan athymic nude mice while anesthetized. Each peptide was allowed to freely circulate within the animal before the animals were euthanized and sectioned.
# This example illustrates peptide homing to cartilage of mice with kidneys that were ligated prior to peptide administration. At the end of the dosing period in EXAMPLE 3, mice were frozen in a hexane/dry ice bath and then frozen in a block of carboxymethylcellulose. […] Thin, frozen sections of animal including imaging of tissues such as brain, tumor, liver, kidney, lung, heart, spleen, pancreas, muscle, adipose, gall bladder, upper gastrointestinal tract, lower gastrointestinal tract, bone, bone marrow, reproductive track, eye, cartilage, stomach, skin, spinal cord, bladder, salivary gland, and other types of tissues were obtained with a microtome, allowed to desiccate in a freezer, and exposed to phosphoimager plates for about ten days.
# These plates were developed, and the signal (densitometry) from each organ was normalized to the signal found in the heart blood of each animal. A signal in tissue darker than the signal expected from blood in that tissue indicates peptide accumulation in a region, tissue, structure or cell. For instance, the cartilage is avascular and contains minute amounts of blood. A ratio of at least 170% signal in the cartilage versus heart ventricle was chosen as a reference level for significant targeting to cartilage, which also correlated with clear accumulation in cartilaginous tissues in the images of the slices.
# The SEQ ID NO: 24 peptide was radiolabeled as in Example 3 and 100 nmol of peptide was injected into a mouse with intact kidneys. FIG. 5 illustrates the retention of and the tissue distribution in the cartilage of a peptide of SEQ ID NO: 24, 24 hours after administration.
# [2] = Temperature stability of peptides (RP-HPLC); format: physicochemical
# Protocol: This example illustrates peptide stability at high temperatures. Peptides were first suspended in 500 μl of ddH2O to a stock concentration of 2 mg/ml. Reactions were prepared by adding 6.25 μl of peptide from the stock solution with 95 μl ddH2O and incubated at room temperature, 70° C., or 100° C. for one hour in a Thermocycler. RP-HPLC was then run on samples using an Agilent 1260 HPLC equipped with a C-18 Poroshell 120B column. Sample were analyzed by a gradient method with a mobile phase of Solvent A (water with 0.1% TFA) and Solvent B (acetonitrile with 0.1% TFA). Solvent B was ramped up from 5%-45% of the mobile phase over a period of 10 minutes.
# Peptides of SEQ ID NO: 28 and SEQ ID NO: 483 were analyzed by HPLC after incubation at room temperature (25° C.), 70° C., or 100° C. for one hour.
# cartilage [3] = assay: Cartilage homing, no method given; details: in vivo
# [4] = tested on: cartilage (IVD, knee / synovial joints); assay: Whole body autoradiography (WBA) of radiolabeled cartilage homing peptides (Example 21); format: in vivo, Female Harlan athymic nude mice; details: for Signal in the intervertebral disc (IVD), Average: percentage of blood
# Protocol: This example illustrates peptide homing to cartilage mice 5 minutes to 48 hours after administration of a radiolabeled peptide. Signal from the radiolabeled peptides was found in all types of cartilage at each time point examined. Each peptide was radiolabeled by methylating […] as described in EXAMPLE 2. As such, the peptide may contain methyl or dimethyl lysines and a methylated or dimethylated amino terminus. A dose of 100 nmol radiolabeled peptide was administered via tail vein injection in Female Harlan athymic nude mice, weighing 20-25 g. The experiment was done in duplicate (n=2 animals per group). In some animals, kidneys were ligated to prevent renal filtration of the radiolabeled peptides and extend plasma half-life. Each radiolabeled peptide was allowed to freely circulate within the animal for the described time period before the animals were euthanized and sectioned.
# Whole body autoradiography (WBA) sagittal sectioning was performed as follows. […] Sections were allowed to desiccate in a freezer prior to imaging.
# For the autoradiography imaging, tape mounted thin sections were freeze dried and radioactive samples were exposed to phophoimager plates for 7 days.
# [5] = Peptide resistance to reducing agents (10 mM DTT, RP-HPLC); format: physicochemical; details: 10 mM DTT in PBS, room temperature, 30 minutes
# Protocol: Several peptides were suspended in 500 μl of ddH2O to a stock concentration of 2 mg/ml. Reactions were prepared by adding 12.5 μg peptide from the stock solution to a 10 mM solution of DTT in PBS and allowed to incubate at room temperature for 30 minutes. RP-HPLC was run on samples using an Agilent 1260 HPLC equipped with a C-18 Poroshell 120B column. Samples were analyzed by a gradient method with a mobile phase of Solvent A (water with 0.1% TFA) and Solvent B (acetonitrile with 0.1% TFA). Solvent B was ramped up from 5%-45% of the mobile phase over a period of 10 minutes.
# Peptides were fractionated by HPLC and without any further sample prep, 5 μl of the sample was injected into the mass spectrometer at 1 mg/ml using a CTCPAL® autosampler. Alternatively, if peptides were provided as a lyophilized powder, the sample was dissolved in 100% water to a concentration of 1 mg/ml a Millipore Ziptip C18® column was used to desalt the peptides prior to injection for ES-MS. The mass spectrometer was calibrated using 5 pmol of mixture of five standard peptides to achieve a high accuracy of mass determination with less than a 10 ppm error. Confirmation of peptide disulfide bond formation was achieved by analyzing the m/z isotopic distribution and the exact charge. All peptides tested are shown under reducing and non-reducing conditions.
# [6] = 3 hr after 100 nmol radiolabeled peptide
# [7] = 24 hr after 100 nmol radiolabeled peptide
Substance,Cartilage (C): percentage of signal in the cartilage compared to the blood signal in the heart ventricle (cartilage [1]) [%],Muscle (M): signal compared to the level in the blood (cartilage [1]) [%],also measured
21 (GSGIVCKVCKIICGMQGKKVNICKAPIKCKCKKG) [compound 21],270,36,–
22 (GSSEKDCIKHLQRCRENKDCCSKKCSRRGTNPEKRCR) [compound 22],337,27,–
23 (GSVRIPVSCKHSGQCLKPCKDAGMRFGKCMNGKCDCTPK) [compound 23],497,26,–
24 (GSGVPINVKCRGSRDCLDPCKKAGMRFGKCINSKCHCTP) [compound 24],624,34,–
25 (GSAVCVYRTCDKDCKRRGYRSGKCINNACKCYPYG) [compound 25],358,24,–
26 (GSISCTGSKQCYDPCKRKTGCPNAKCMNKSCKCYGCG) [compound 26],413,38,–
27 (GSQVQTNVKCQGGSCASVCRREIGVAAGKCINGKCVCYRN) [compound 27],448,31,–
28 (GSEVIRCSGSKQCYGPCKQQTGCTNSKCMNKVCKCYGCG) [compound 28],361,17,–
29 (GSACKGVFDACTPGKNECCPNRVCSDKHKWCKWKL) [compound 29],243,26,–
30 (GSQIYTSKECNGSSECYSHCEGITGKRSGKCINKKCYCYR) [compound 30],221,26,–
31 (GSGCLEFWWKCNPNDDKCCRPKLKCSKLFKLCNFSFG) [compound 31],306,68,–
33 (GSGCFGYKCDYYKGCCSGYVCSPTWKWCVRPGPGR) [compound 33],179,28,–
196 (GSQKILSNRCNNSSECIPHCIRIFGTRAAKCINRKCYCYP) [compound 196],291,30,–
198 (GSAVCNLKRCQLSCRSLGLLGKCIGDKCECVKHG) [compound 198],276,26,–
433 (GSKCLPPGKPCYGATQKIPCCGVCSHNNCT) [compound 433],156,20,–
483 (GSISIGIKCSPSIDLCEGQCRIRKYFTGYCSGDTCHCSG) [compound 483],67,24,–
485 (METDTLLLWVLLLWVPGSTG) [compound 485],92,21,–
GSEVIRCSGSKQCYGPCKQQTGCTNSKCMNKVCKCYGCG [SEQ ID NO: 28],–,–,Stability after heat incubation (HPLC) ([2]; 70 C for 1 hour): resistant to heat-induced degradation; Stability after heat incubation (HPLC) ([2]; 100 C for 1 hour): underwent various degrees of degradation
GSGDCLPHLKRCKENNDCCSKKCKRRGANPEKRCR [SEQ ID NO: 205],–,–,Cartilage homing (cartilage [3]): home to cartilage
GSGDCLPHLRRCRENNDCCSRRCRRRGANPERRCR [SEQ ID NO: 200],–,–,"Cartilage homing (qualitative, WBA) ([4]; 100 nmol radiolabeled peptide): showed signal in cartilage and exhibited cartilage homing properties; Change of signal in IVD and joint cartilage between 3 and 24 hours ([4]; 100 nmol radiolabeled peptide): maintained or increased; Signal in the intervertebral disc (IVD), Average [4, 6]: 1809%; Signal in synovial joints as a percentage of signal in blood, Average [4, 7]: 4991%; Signal in the intervertebral disc (IVD), Average [4, 7]: 3542%"
"GSKCLPPGKPCYGATQKIPCCGVCSHNNCT [SEQ ID NO: 433, reference compound]",–,–,"Homing to cartilage (autoradiography, FIG. 11) (cartilage [1]; 24 hours after administration of 100 nmol): did not home to cartilage and was seen in the bone marrow"
GSQKILSNRCNNSSECIPHCIRIFGTRAAKCINRKCYCYP [SEQ ID NO: 196],–,–,HPLC peaks under non-reducing versus reducing conditions (resistance to reduction by DTT) [5]: Peaks showing the peptide under non-reducing conditions and reducing conditions are overlapping
GSQVQTNVRCQGGSCASVCRREIGVAAGRCINGRCVCYRN [SEQ ID NO: 114],–,–,"Cartilage homing (qualitative, WBA) ([4]; 100 nmol radiolabeled peptide): showed signal in cartilage and exhibited cartilage homing properties; Change of signal in IVD and joint cartilage between 3 and 24 hours ([4]; 100 nmol radiolabeled peptide): reduced residence time with a signal near the limit of detection by 24 hours; Signal in synovial joints as a percentage of signal in blood, Average [4, 6]: 1175%; Signal in the intervertebral disc (IVD), Average [4, 6]: 1075%; Signal in the intervertebral disc (IVD), Average [4, 7]: 191%"
GSSEKDCIKHLQRCRENKDCCSKKCSRRGTNPEKRCR [SEQ ID NO: 22],–,–,Cartilage homing (cartilage [3]): home to cartilage
GSSERDCIRHLQRCRENRDCCSRRCSRRGTNPERRCR [SEQ ID NO: 109],–,–,"Cartilage homing (qualitative, WBA) ([4]; 100 nmol radiolabeled peptide): showed signal in cartilage and exhibited cartilage homing properties; Change of signal in IVD and joint cartilage between 3 and 24 hours ([4]; 100 nmol radiolabeled peptide): maintained or increased; Rank of signal in cartilage among SEQ ID NO: 109, 200, 110, 114 ([4]; 100 nmol radiolabeled peptide): highest signal in cartilage; Signal in synovial joints as a percentage of signal in blood, Average [4, 6]: 5627%; Signal in the intervertebral disc (IVD), Average [4, 6]: 2758%; Signal in synovial joints as a percentage of signal in blood, Average [4, 7]: 5097%; Signal in the intervertebral disc (IVD), Average [4, 7]: 4367%"
GSVRIPVSCRHSGQCLRPCRDAGIVIRFGRCMNGRCDCTPR [SEQ ID NO: 110],–,–,"Cartilage homing (qualitative, WBA) ([4]; 100 nmol radiolabeled peptide): showed signal in cartilage and exhibited cartilage homing properties; Change of signal in IVD and joint cartilage between 3 and 24 hours ([4]; 100 nmol radiolabeled peptide): decreased; Signal in synovial joints as a percentage of signal in blood, Average [4, 6]: 3142%; Signal in the intervertebral disc (IVD), Average [4, 6]: 2374%; Signal in synovial joints as a percentage of signal in blood, Average [4, 7]: 981%; Signal in the intervertebral disc (IVD), Average [4, 7]: 1327%"
VFINVKCRGSPECLPKCKEAIGKSAGKCMNGKCKCYP [SEQ ID NO: 422],–,–,Cartilage homing (cartilage [3]): homes to cartilage

# — US11648290B2, “Cartilage-homing peptides” (FRED HUTCHINSON CANCER CENTER, priority 2015, dated 2023)
